Data from patent US20220153847A1 (Chugai, published 2022).

How the values were obtained:
[1] = molecular target: T1, HLA-DQ2.5/omega 1 gliadin peptide complex on Ba/F3 cells (human); test: FACS, Ba/F3 cells; IC17=0%, DQN0139bb//IC17=100%;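 note: flow cytometry binding of anti-HLA-DQ antibodies at 5 µg/mL, incubated 30 min at room temperature with Ba/F3 lines presenting HLA-DQ/peptide complexes; antibody tested at 5 microgram/mL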
T1 construct: whole, on cells; also called Ba/F3-HLA-DQ2.5/omega 1 gliadin; HLA-DQ2.5/w1 gliadin
Source text: (§1) The binding of anti-HLA-DQ antibodies to Ba/F3-HLA-DQ2.5, Ba/F3-HLA-DQ2.2, Ba/F3-HLA-DQ7.5, Ba/F3-HLA-DQ8, Ba/F3-HLA-DQ5.1, Ba/F3-HLA-DQ6.3, Ba/F3-HLA-DQ7.3, Ba/F3-HLA-DR, Ba/F3-HLA-DP, Ba/F3-HLA-DQ2.5/CLIP, Ba/F3-HLA-DQ2.5/HBV, Ba/F3-HLA-DQ2.5/Salmonella, Ba/F3-HLA-DQ2.5/TPO, Ba/F3-HLA-DQ2.5/M. bovis, Ba/F3-HLA-DQ2.5/alpha 1 gliadin, Ba/F3-HLA-DQ2.5/alpha 2 gliadin, Ba/F3-HLA-DQ2.5/gamma 1 gliadin, Ba/F3-HLA-DQ2.5/gamma 2 gliadin, Ba/F3-HLA-DQ2.5/omega 1 gliadin, Ba/F3-HLA-DQ2.5/omega 2 gliadin, Ba/F3-HLA-DQ2.5/BC hordein, Ba/F3-HLA-DQ2.5/alpha 3 gliadin, Ba/F3-HLA-DQ2.5/alpha 1b gliadin, Ba/F3-HLA-DQ2.5/gamma 4b gliadin, Ba/F3-HLA-DQ2.5/avenin 1, Ba/F3-HLA-DQ2.5/avenin 2, Ba/F3-HLA-DQ2.5/avenin 3, Ba/F3-HLA-DQ2.5/hordein 1, Ba/F3-HLA-DQ2.5/hordein 2, Ba/F3-HLA-DQ2.5/secalin 1, Ba/F3-HLA-DQ2.5/secalin 2, Ba/F3-HLA-DQ2.5/14mer 1, Ba/F3-HLA-DQ2.5/33mer gliadin, Ba/F3-HLA-DQ2.5/26mer gliadin, was tested. 5 microgram/mL of each of the anti-HLA-DQ antibodies was incubated with each cell line for 30 minutes at room temperature and washed with FACS buffer (2% FBS, 2 mM EDTA in PBS).

[2] = molecular target: T2, HLA-DQ2.5/alpha 1b gliadin peptide complex on Ba/F3 cells (human); test: FACS, Ba/F3 cells; IC17=0%, DQN0139bb//IC17=100%;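 note: flow cytometry binding of anti-HLA-DQ antibodies at 5 µg/mL, incubated 30 min at room temperature with Ba/F3 lines presenting HLA-DQ/peptide complexes; antibody tested at 5 microgram/mL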
T2 construct: whole, on cells; also called Ba/F3-HLA-DQ2.5/alpha 1b gliadin; HLA-DQ2.5/a1b gliadin
Source text: as §1

[3] = molecular target: T3, HLA-DQ2.5/omega 2 gliadin peptide complex on Ba/F3 cells (human); test: FACS, Ba/F3 cells; IC17=0%, DQN0139bb//IC17=100%;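 note: flow cytometry binding of anti-HLA-DQ antibodies at 5 µg/mL, incubated 30 min at room temperature with Ba/F3 lines presenting HLA-DQ/peptide complexes; antibody tested at 5 microgram/mL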
T3 construct: whole, on cells; also called Ba/F3-HLA-DQ2.5/omega 2 gliadin; HLA-DQ2.5/w2 gliadin
Source text: as §1

[4] = molecular target: T4, HLA-DQ2.5/hordein 1 peptide complex on Ba/F3 cells (human); test: FACS, Ba/F3 cells; IC17=0%, DQN0139bb//IC17=100%;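 note: flow cytometry binding of anti-HLA-DQ antibodies at 5 µg/mL, incubated 30 min at room temperature with Ba/F3 lines presenting HLA-DQ/peptide complexes; antibody tested at 5 microgram/mL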
T4 construct: whole, on cells; also called Ba/F3-HLA-DQ2.5/hordein 1
Source text: as §1

[5] = molecular target: T5, HLA-DQ2.5/14mer 1 peptide complex on Ba/F3 cells (human); test: FACS, Ba/F3 cells; IC17=0%, DQN0139bb//IC17=100%
T5 construct: whole, on cells; also called Ba/F3-HLA-DQ2.5/14mer 1
Source text: as §1

[6] = molecular target: T6, HLA-DQ2.5/alpha 1 gliadin peptide complex on Ba/F3 cells (human); test: FACS, Ba/F3 cells; IC17=0%, DQN0139bb//IC17=100%
T6 construct: whole, on cells; also called Ba/F3-HLA-DQ2.5/alpha 1 gliadin; HLA-DQ2.5/a1 gliadin
Source text: as §1

[7] = molecular target: T7, HLA-DQ2.5/alpha 3 gliadin peptide complex on Ba/F3 cells (human); test: FACS, Ba/F3 cells; IC17=0%, DQN0139bb//IC17=100%
T7 construct: whole, on cells; also called Ba/F3-HLA-DQ2.5/alpha 3 gliadin; HLA-DQ2.5/a3 gliadin
Source text: as §1

[8] = molecular target: T8, HLA-DQ2.5/alpha 2 gliadin peptide complex on Ba/F3 cells (human); test: FACS, Ba/F3 cells; IC17=0%, DQN0139bb//IC17=100%
T8 construct: whole, on cells; also called Ba/F3-HLA-DQ2.5/alpha 2 gliadin; HLA-DQ2.5/a2 gliadin
Source text: as §1

HLA-DQ2.2 on Ba/F3 cells = molecular target: T9, HLA-DQ2.2 on Ba/F3 cells (human, UniProt P01909 24-216, limits assumed); test: FACS, Ba/F3 cells; IC17=0%, DQN0139bb//IC17=100%
T9 construct: whole, on cells; also called Ba/F3-HLA-DQ2.2
Source text: as §1
T9 MHC II alpha: not shown
T9 MHC II beta: not shown

[9] = molecular target: T10, HLA-DQ2.5/33mer gliadin peptide complex on Ba/F3 cells (human); test: FACS, Ba/F3 cells; IC17=0%, DQN0139bb//IC17=100%
T10 construct: whole, on cells; also called Ba/F3-HLA-DQ2.5/33mer gliadin
Source text: as §1

[10] = molecular target: T11, HLA-DQ2.5/hordein 2 peptide complex on Ba/F3 cells (human); test: FACS, Ba/F3 cells; IC17=0%, DQN0139bb//IC17=100%
T11 construct: whole, on cells; also called Ba/F3-HLA-DQ2.5/hordein 2
Source text: as §1

[11] = molecular target: T12, HLA-DQ2.5/gamma 1 gliadin peptide complex on Ba/F3 cells (human); test: FACS, Ba/F3 cells; IC17=0%, DQN0139bb//IC17=100%
T12 construct: whole, on cells; also called Ba/F3-HLA-DQ2.5/gamma 1 gliadin; HLA-DQ2.5/g1 gliadin
Source text: as §1

[12] = molecular target: T13, HLA-DQ2.5/26mer gliadin peptide complex on Ba/F3 cells (human); test: FACS, Ba/F3 cells; IC17=0%, DQN0139bb//IC17=100%
T13 construct: whole, on cells; also called Ba/F3-HLA-DQ2.5/26mer gliadin
Source text: as §1

[13] = molecular target: T14, HLA-DQ2.5/secalin 2 peptide complex on Ba/F3 cells (human); test: FACS, Ba/F3 cells; IC17=0%, DQN0139bb//IC17=100%
T14 construct: whole, on cells; also called Ba/F3-HLA-DQ2.5/secalin 2
Source text: as §1

[14] = molecular target: T15, HLA-DQ2.5/BC hordein peptide complex on Ba/F3 cells (human); test: FACS, Ba/F3 cells; IC17=0%, DQN0139bb//IC17=100%
T15 construct: whole, on cells; also called Ba/F3-HLA-DQ2.5/BC hordein
Source text: as §1

[15] = molecular target: T16, HLA-DQ2.5/gamma 2 gliadin peptide complex on Ba/F3 cells (human); test: FACS, Ba/F3 cells; IC17=0%, DQN0139bb//IC17=100%
T16 construct: whole, on cells; also called Ba/F3-HLA-DQ2.5/gamma 2 gliadin; HLA-DQ2.5/g2 gliadin
Source text: as §1

[16] = molecular target: T17, HLA-DQ2.5/gamma 4b gliadin peptide complex on Ba/F3 cells (human); test: FACS, Ba/F3 cells; IC17=0%, DQN0139bb//IC17=100%
T17 construct: whole, on cells; also called Ba/F3-HLA-DQ2.5/gamma 4b gliadin; HLA-DQ2.5/g4b gliadin
Source text: as §1

[17] = molecular target: T18, HLA-DQ2.5/secalin 1 peptide complex on Ba/F3 cells (human); test: FACS, Ba/F3 cells; IC17=0%, DQN0139bb//IC17=100%
T18 construct: whole, on cells; also called Ba/F3-HLA-DQ2.5/secalin 1
Source text: as §1

HLA-DQ6.3 on Ba/F3 cells = molecular target: T19, HLA-DQ6.3 on Ba/F3 cells (human, UniProt P01920 33-230, limits assumed); test: FACS on Ba/F3-HLA-DQ6.3 cells, single antibody concentration, goat F(ab')2 anti-human IgG-PE
T19 construct: whole, on cells; also called Ba/F3-HLA-DQ6.3
T19 MHC II alpha: not shown
T19 MHC II beta: not shown

B1: DQN0429cc//IC17 (bispecific antibody, human IgG1, kappa)
heavy 1: QEQLVESGGGLVQPEGSLTLTCTASGFSFSSSYYMCWVRQAPGKGLEWIGCIYTGSGSTDYATWVNGRFTISKTSSTTVTLQMTSLTVADTATYFCARDIGIDYNFWGPGTLVTVSSASTKGPSVFPLAPSSKSTSGGTAALGCLVKDYFPEPVTVSWNSGALTSGVHTFPAVLQSSGLYSLSSVVTVPSSSLGTQTYICNVNHKPSNTKVDKRVEPKSCDKTHTCPPCPAPELRRGPSVFLFPPKPKDTLMISRTPEVTCVVVDVSHEDPEVKFNWYVDGVEVHNAKTKPREEQYNSTYRVVSVLTVLHQDWLNGKEYKCKVSNKALPAPIEKTISKAKGQPREPQVYTLPPSREEMTKNQVSLTCLVKGFYPSDIAVEWESNGQPENNYKTTPPYLDSDGSFFLYSKLTVDKSRWQQGNVFSCSVMHEALHNHYTQESLSLSP
light 1: AFELTQTPSFVEARVGGTVTIKCQATQSISSYLNWYQQKPGQPPKLLIYYASTLASGVPSRFKGSGSGTEFTLTISGVECADAATYYCHYGISYVSFGGGTKVEIKRTVAAPSVFIFPPSDEQLKSGTASVVCLLNNFYPREAKVQWKVDNALQSGNSQESVTEQDSKDCTYSLSSTLTLSKADYEKHKVYACEVTHQGLSSPVTKSFNRGEC
heavy 2: QVQLQQSGPQLVRPGASVKISCKASGYSFTSYWMHWVNQRPGQGLEWIGMIDPSYSETRLNQKFKDKATLTVDKSSSTAYMQLSSPTSEDSAVYYCALYGNYFDYWGQGTTLTVSSASTKGPSVFPLAPSSKSTSGGTAALGCLVKDYFPEPVTVSWNSGALTSGVHTFPAVLQSSGLYSLSSVVTVPSSSLGTQTYICNVNHKPSNTKVDKRVEPKSCDKTHTCPPCPAPELRRGPSVFLFPPKPKDTLMISRTPEVTCVVVDVSHEDPEVKFNWYVDGVEVHNAKTKPREEQYNSTYRVVSVLTVLHQDWLNGKEYKCKVSNKALPAPIEKTISKAKGQPREPQVYTLPPSRKEMTKNQVSLTCLVKGFYPSDIAVEWESNGQPENNYKTTPPYLDSDGSFFLYSKLTVDKSRWQQGNVFSCSVMHEALHNHYTQKSLSLSP
light 2: DIQMTQSSSSFSVSLGDRVTITCKASEDIYNRLAWYQQKPGNAPRLLISGATSLETGVPSRFSGSGSGKDYTLSITSLQTEDVATYYCQQYWSTPYTFGGGTKLEVKRTVAAPSVFIFPPSDEQLKSGTASVVCLLNNFYPREAKVQWKVDNALQSGNSQESVTEQDSKDSTYSLSSTLTLSKADYEKHKVYACEVTHQGLSSPVTKSFNRGEC
% MFI [1]: 11.5% | % MFI [2]: 9.2% | % MFI [3]: 45.4% | % MFI [4]: 1.5% | % MFI [5]: 16.3% | % MFI [6]: 3.5% | % MFI [7]: 0.8% | % MFI [8]: 55.5% | % MFI (HLA-DQ2.2 on Ba/F3 cells): 0.3% | % MFI [9]: 67.1% | % MFI [10]: 93.2% | % MFI [11]: 12.6% | % MFI [12]: 26.2% | % MFI [13]: 30.6% | % MFI [14]: 14.9% | % MFI [15]: 0.8% | % MFI [16]: 3.2% | % MFI [17]: 10.9%

B2: IC17 (antibody, V domains shown)
VH: QVQLQQSGPQLVRPGASVKISCKASGYSFTSYWMHWVNQRPGQGLEWIGMIDPSYSETRLNQKFKDKATLTVDKSSSTAYMQLSSPTSEDSAVYYCALYGNYFDYWGQGTTLTVSS
VL: DIQMTQSSSSFSVSLGDRVTITCKASEDIYNRLAWYQQKPGNAPRLLISGATSLETGVPSRFSGSGSGKDYTLSITSLQTEDVATYYCQQYWSTPYTFGGGTKLEVK
notes: also called IC17 bivalent; TC17
binding result (HLA-DQ6.3 on Ba/F3 cells): no binding (tested: 5 microgram/mL)
